Results on three substances are retold here after patent publication US10047131B2, “Peptides and combination of peptides for use in immunotherapy against ovarian cancer and other cancers” (immatics biotechnologies GmbH, priority 2015, dated 2018).

For the assay, the target named is HLA-A*02:01 (Homo sapiens, UniProt P04439, D140Y/D185E/D98H/E176V/E277Q/G131W/G231S/I119V/I121R/I166T/I218V/L300P/L318F/N151K/N90K/P208A/P217A/Q86G/Q94H/R138H/R169H/T345S). The assay can be described thus: MHC binding assay (UV-ligand exchange, ELISA of exchange yield). The conditions noted are these: binding to HLA-A*02:01, UV-ligand exchange. Put shortly:
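Peptide–MHC complexes made by UV-ligand exchange, where a UV-cleavable peptide is replaced by the test peptide. Exchange yield measured by ELISA: complexes diluted 100-fold on streptavidin-coated plates, stabilized complexes detected with HRP anti-β2m, TMB read at 450 nm.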
For orientation: An ELISA detects its analyte on a solid surface through an enzyme-linked reagent.
With “622 (RLLGEEVVRVLQA; listed as Homo sapiens) [compound 622]”, the “Peptide exchange (MHC class I binding score, peptide exchange yield)” value (“Peptide exchange” below) is ““+++” (≥50 = +++)”.

Regarding “623 (YLVEDIQHI; listed as Homo sapiens) [compound 623]”, the “Peptide exchange” value was ““+++” (≥50 = +++)”.

Take “635 (SLDSTLHAV; listed as Homo sapiens) [compound 635]”: the “Peptide exchange” value is recorded as ““+++” (≥50 = +++)”.
